From US20170152290A1 (CENTRO DE INGENIERIA GEN TICA Y BIOTECHNOLOGIA, published 2017)

T1: activated human alfa-2-macroglobulin (α2M_MeNH2) (human, UniProt P01023 24-1474)
T1 construct: mature
T1 sequence (looked up): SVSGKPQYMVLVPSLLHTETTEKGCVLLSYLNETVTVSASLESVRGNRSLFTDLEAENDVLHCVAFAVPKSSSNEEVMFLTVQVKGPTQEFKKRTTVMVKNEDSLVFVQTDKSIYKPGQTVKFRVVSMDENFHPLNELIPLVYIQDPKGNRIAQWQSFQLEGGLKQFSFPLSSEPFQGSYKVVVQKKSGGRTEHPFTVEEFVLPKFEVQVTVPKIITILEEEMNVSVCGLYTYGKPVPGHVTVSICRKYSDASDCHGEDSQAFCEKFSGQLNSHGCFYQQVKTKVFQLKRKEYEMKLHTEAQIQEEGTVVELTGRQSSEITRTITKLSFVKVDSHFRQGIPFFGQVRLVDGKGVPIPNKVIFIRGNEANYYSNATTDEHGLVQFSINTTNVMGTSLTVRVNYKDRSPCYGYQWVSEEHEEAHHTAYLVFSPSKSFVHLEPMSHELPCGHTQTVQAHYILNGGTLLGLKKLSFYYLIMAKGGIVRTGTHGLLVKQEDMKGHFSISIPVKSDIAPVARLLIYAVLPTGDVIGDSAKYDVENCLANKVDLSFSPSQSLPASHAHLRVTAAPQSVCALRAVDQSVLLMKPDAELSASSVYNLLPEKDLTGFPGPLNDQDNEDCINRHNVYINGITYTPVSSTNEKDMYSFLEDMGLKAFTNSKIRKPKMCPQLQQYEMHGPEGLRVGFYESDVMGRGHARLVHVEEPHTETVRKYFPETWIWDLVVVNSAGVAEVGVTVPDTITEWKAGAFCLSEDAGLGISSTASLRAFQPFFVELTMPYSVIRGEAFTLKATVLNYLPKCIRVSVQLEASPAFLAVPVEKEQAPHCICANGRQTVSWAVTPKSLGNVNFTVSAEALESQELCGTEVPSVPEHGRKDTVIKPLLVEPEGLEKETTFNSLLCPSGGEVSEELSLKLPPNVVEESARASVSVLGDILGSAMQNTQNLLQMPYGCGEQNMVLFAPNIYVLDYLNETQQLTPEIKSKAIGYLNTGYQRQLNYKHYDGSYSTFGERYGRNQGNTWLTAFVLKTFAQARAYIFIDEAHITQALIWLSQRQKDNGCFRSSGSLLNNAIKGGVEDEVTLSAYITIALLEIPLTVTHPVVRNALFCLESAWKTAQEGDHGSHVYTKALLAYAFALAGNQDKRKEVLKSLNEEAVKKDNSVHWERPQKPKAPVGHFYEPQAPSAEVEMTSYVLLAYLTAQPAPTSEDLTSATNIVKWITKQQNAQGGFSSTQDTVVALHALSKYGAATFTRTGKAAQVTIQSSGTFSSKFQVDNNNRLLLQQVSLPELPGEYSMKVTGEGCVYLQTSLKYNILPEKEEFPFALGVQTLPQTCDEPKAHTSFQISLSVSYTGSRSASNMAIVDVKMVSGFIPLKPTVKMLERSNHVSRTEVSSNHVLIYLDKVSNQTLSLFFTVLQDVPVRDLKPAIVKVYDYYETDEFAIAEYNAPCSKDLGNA


molecular target: recombinant Human Serum Albumin (rHSA) (human, UniProt P02768 25-609); assay: SPR (Biacore X), CM5 chip, sLRP1-CIV immobilised on Fc1 and rHSA on Fc2, analyte at 100 nM

Row | Binder | binding result
1 | Receptor-Associated Protein (RAP) (ligand, UniProt P30533 35-357, looked up) YSREKNQPKPSPKRESGEEFRMEKLNQLWEKAQRLHLPPVRLAELHADLKIQERDELAWKKLKLDGLDEDGEKEARLIRNLNVILAKYGLDGKKDARQVTSNSLSGTQEDGLDDPRLEKLWHKAKTSGKFSGEELDKLWREFLHHKEKVHEYNVLLETLSRTEEIHENVISPSDLSDIKGSVLHSRHTELKEKLRSINQGLDRLRRVSHQGYSTEAEFEEPRVIDLWDLAQSANLTDKELEAFREELKHFEAKIEKHNHYQKQLEIAHEKLRHAESVGDGERVSRSREKHALLEGRTKELGYTVKKHLQDLSGRISRARHNEL | no binding (tested: 100 nM)

molecular target: T1, activated human alfa-2-macroglobulin …; assay: competition ELISA, α2M* coated, DIIIE1PRSbiot as labelled ligand

Row | Binder | fold increase of IC50 against wild-type DIIIE1PRS | fold reduction of affinity against wild-type DIIIE1PRS
2 | DIIIE1PRS alanine mutant, variant E375 (other, also called Glu375 to Ala) MDKLTLKGMSYVMCTGSFKLEKEVAETQHGTVLVQVKYEGTDAPCKIPFSTQDEKGVTQNGRLITANPIVTDKEKPVNIETEPPFGASYIVVGAGEKALKLSWFKKGSSIGVDHHHHHH | ≥ 2 fold | 
3 | DIIIE1PRS alanine mutant, variant K361 (other, also called Lys361 to Ala) MDKLTLKGMSYVMCTGSFKLEKEVAETQHGTVLVQVKYEGTDAPCKIPFSTQDEKGVTQNGRLITANPIVTDAEKPVNIETEPPFGESYIVVGAGEKALKLSWFKKGSSIGVDHHHHHH | > 10 fold | 
4 | DIIIE1PRS alanine mutant, variant P364 (other) MDKLTLKGMSYVMCTGSFKLEKEVAETQHGTVLVQVKYEGTDAPCKIPFSTQDEKGVTQNGRLITANPIVTDKEKAVNIETEPPFGESYIVVGAGEKALKLSWFKKGSSIGVDHHHHHH | > 10 fold | 
5 | DIIIE1PRS alanine mutant, variant P372 (other, also called Pro372 to Ala) MDKLTLKGMSYVMCTGSFKLEKEVAETQHGTVLVQVKYEGTDAPCKIPFSTQDEKGVTQNGRLITANPIVTDKEKPVNIETEPAFGESYIVVGAGEKALKLSWFKKGSSIGVDHHHHHH | ≥ 2 fold | 
6 | DIIIE1PRS alanine mutant, variant E362 (other) MDKLTLKGMSYVMCTGSFKLEKEVAETQHGTVLVQVKYEGTDAPCKIPFSTQDEKGVTQNGRLITANPIVTDKAKPVNIETEPPFGESYIVVGAGEKALKLSWFKKGSSIGVDHHHHHH | > 10 fold | 
7 | DIIIE1PRS alanine mutant, variant V365 (other, also called Val365 to Ala) MDKLTLKGMSYVMCTGSFKLEKEVAETQHGTVLVQVKYEGTDAPCKIPFSTQDEKGVTQNGRLITANPIVTDKEKPANIETEPPFGESYIVVGAGEKALKLSWFKKGSSIGVDHHHHHH | > 10 fold | 
8 | DIIIE1PRS alanine mutant, variant K385 (other, also called Lys385 to Ala) MDKLTLKGMSYVMCTGSFKLEKEVAETQHGTVLVQVKYEGTDAPCKIPFSTQDEKGVTQNGRLITANPIVTDKEKPVNIETEPPFGESYIVVGAGEAALKLSWFKKGSSIGVDHHHHHH | > 10 fold | > 22 fold
9 | DIIIE1PRS alanine mutant, variant E342 (other, also called Glu342 to Ala) MDKLTLKGMSYVMCTGSFKLEKEVAETQHGTVLVQVKYEGTDAPCKIPFSTQDAKGVTQNGRLITANPIVTDKEKPVNIETEPPFGESYIVVGAGEKALKLSWFKKGSSIGVDHHHHHH | ≥ 2 fold | 
10 | DIIIE1PRS alanine mutant, variant T346 (other) MDKLTLKGMSYVMCTGSFKLEKEVAETQHGTVLVQVKYEGTDAPCKIPFSTQDEKGVAQNGRLITANPIVTDKEKPVNIETEPPFGESYIVVGAGEKALKLSWFKKGSSIGVDHHHHHH | ≥ 2 fold | 
11 | DIIIE1PRS alanine mutant, variant R350 (other, also called Arg350 to Ala) MDKLTLKGMSYVMCTGSFKLEKEVAETQHGTVLVQVKYEGTDAPCKIPFSTQDEKGVTQNGALITANPIVTDKEKPVNIETEPPFGESYIVVGAGEKALKLSWFKKGSSIGVDHHHHHH | ≥ 2 fold | 
12 | DIIIE1PRS alanine mutant, variant K363 (other, also called Lys363 to Ala) MDKLTLKGMSYVMCTGSFKLEKEVAETQHGTVLVQVKYEGTDAPCKIPFSTQDEKGVTQNGRLITANPIVTDKEAPVNIETEPPFGESYIVVGAGEKALKLSWFKKGSSIGVDHHHHHH | ≥ 2 fold | 
13 | DIIIE1PRS alanine mutant, variant N366 (other, also called Asn366 to Ala) MDKLTLKGMSYVMCTGSFKLEKEVAETQHGTVLVQVKYEGTDAPCKIPFSTQDEKGVTQNGRLITANPIVTDKEKPVAIETEPPFGESYIVVGAGEKALKLSWFKKGSSIGVDHHHHHH | ≥ 2 fold | 
14 | DIIIE1PRS alanine mutant, variant G374 (other, also called Gly374 to Ala) MDKLTLKGMSYVMCTGSFKLEKEVAETQHGTVLVQVKYEGTDAPCKIPFSTQDEKGVTQNGRLITANPIVTDKEKPVNIETEPPFAESYIVVGAGEKALKLSWFKKGSSIGVDHHHHHH | ≥ 2 fold | 
